{
  "source": "the DeepSol protein solubility set",
  "data": [
    {"experiment": "soluble on expression in E. coli; label from the status in PepcDB or PDB records", "values": [
      {"sequence": "REGMNTIARNLGITCSADIGLISIEYTCFSNNLSYTQVLSLPKTGVNTDKLDQMERFVKEFGNDCSSLTIRQIHNKLDTVQRK", "soluble on expression in E. coli": "not soluble"},
      {"sequence": "RESLGRDVMVVVDLSGSMAEQDFVSKQSSDLGAVKKISRLEATKEVLADFVKTRKGDRLGLILFGDAAFVQTPFTADQSVWLELLNQTDVAMAGQSTHLGDAIGLAIKVFEQSSEDKASAEENAKPREKVAIVLTDGNDTGSYVEPIDAAKVAAAKDVRIHMIAMGDPRTVGEQALDMNIINRVAKESGGKAFQAINRDELEQAYDEIGELEPQLYE", "soluble on expression in E. coli": "not soluble"},
      {"sequence": "REVLARDREVLRSVYGILVQAHYRNTPDDLLAMLESPHHRIYALEADGTPVAVADVVLEGPDVEEEARIALERLLYMAGSPGSGVVSWRVSRIAVHEDLQRRGLGSRLLRHVEAQARESGASLVTTMFSRHDVIPFWLKNGFKPFYVSPRYNRVTGEKNVALAKPLDSAGA", "soluble on expression in E. coli": "not soluble"},
      {"sequence": "RIVLQTSAHTLGDVVVTGYQTLERRKLTAAISKVEVSDAMVGAAKSIDQALTGQIAGVSVTNTSGAPGSPAKIRIRGTASMNGTQDPLWVLDGIPLEGTDIPKMDNKSSDNDIVNIGQSSIAGLSPNDIESITILKDAAATAIYGARAANGVIVVTTKRGKTGK", "soluble on expression in E. coli": "not soluble"},
      {"sequence": "RKDFTKEEVNYLFHGVKTMGNHWNSILWSFPFQKGRRAVDLAHKYHRLI", "soluble on expression in E. coli": "soluble"},
      {"sequence": "RKQAEEKLVASERFLRMLTNQLPGMVGYWDRDLRCRFANDAYKEWFGRSPEQIIGLTVQELMGEELFRLSEPYIRGALQGEPQNFERELVKPNGETGYTWAQYIPDMVNDKAIGFFVLISDVT", "soluble on expression in E. coli": "not soluble"},
      {"sequence": "RLFGDNVVALAGDAGFRTYWLSNQARLGRYDTPVTAMANMAHFKTWADAPYDEALLPLLDAALAEPGRKVVFLHINGNHDNYCTRYPETATVYQGGAPYEDCYDNSIRYVDALLGAVMDRLGERRASLLFYPDHGLERHESVLGTFYHGGVRPSREAFDIPMFIWNSPAAPAPARREYDAPYSTEDNYGLILDWLG", "soluble on expression in E. coli": "not soluble"},
      {"sequence": "RLKNPKIKQGGEWMDVDWKTALEYVRSAIECIAKDGNQNQVGVWANPMNTVEELYLAKKFADGLGVKNFATRLRQQDKRLSDGLKGAQWLGQSIESLADNDAVLVVGANLRKEQPLLTARLRRAAKDRMALSVLAGSKEELFMPLLSQEAAHPDEWAGRLKNLSADAEHAVTASLKNAEKAAVILGAEVQNHPDYAAIYAAAQELADATGAVLGILPQAANSVGADVLGVNSGESVAEMANTPKQAVLLLNVEPEIDTVDGAKAVAALKQAKSVMAFTPFVSETLLDVCDVLLPIAPFTETSGSFINMEGRLQSFHGVVQGFGDSRPMWKVLRVLGNLFDLKGFEYHDTAAILKDALD", "soluble on expression in E. coli": "not soluble"},
      {"sequence": "RLQPIIVPGWQGSGPGHWQTHWSRTLPHAVRLQQRDWHQPQRAEWVAALAAAVDAAPTPVLLVAHSLGCLVSAALPIALRAKVAGALLVAPADVERPGAPAAIAAFGPVPRQSLPYQSVVIASDDDPYCRLERARQFAQDWGSRLVVLQGAGHINADSQLGAWPQGLKQLAALRRRACW", "soluble on expression in E. coli": "not soluble"},
      {"sequence": "RLQSRILAGLLHTVVRYRRKVVRDNLTRCFPEKSLQEIRRIERRFYYNFTYQILSSFKLLTYSQAQLRRHISFENLDVLIRLRAEGHPAILLMMGHFGNWEYFSGSQAIIKDLGLQIYQIFRPLKSTSSDRLMHRIRERFGSRGIAKHDVPRELLRLVRNPIPTETP", "soluble on expression in E. coli": "not soluble"},
      {"sequence": "RPGGDAREPRKIILHKGSTGLGFNIVGGEDGEGIFVSFILAGGPADLSGELRRGDRILSVNGVNLRNATHEQAAAALKRAGQSVTIVAQYRPEEYSRFES", "soluble on expression in E. coli": "soluble"},
      {"sequence": "RPRNALLLLADDGGFESGAYNNSAIATPHLDALARRSLLFRNAFTSVSSCSPSRASLLTGLPQHQNGMYGLHQDVHHFNSFDKVRSLPLLLSQAGVRTGIIGKKHVGPETVYPFDFAYTEENGSVLQVGRNITRIKLLVRKFLQTQDDRPFFLYVAFHDPHRCGHSQPQYGTFCEKFGNGESGMGRIPDWTPQAYDPLDVLVPYFVPNTPAARADLAAQYTTVGRMDQGVGLVLQELRDAGVLNDTLVIFTSDNGIPFPSGRTNLYWPGTAEPLLVSSPEHPKRWGQVSEAYVSLLDLTPTILDWFSIPYPSYAIFGSKTIHLTGRSLLPALEAEPLWATVFGSQSHHEVTMSYPMRSVQHRHFRLVHNLNFKMPFPIDQDFYVSPTFQDLLNRTTAGQPTGWYKDLRHYYYRARWELYDRSRDPHETQNLATDPRFAQLLEMLRDQLAKWQWETHDPWVCAPDGVLEEKLSPQCQPLHNEL", "soluble on expression in E. coli": "soluble"},
      {"sequence": "RSDTIMVLSINPKEKKTELVSIPRDTKAEIAGRGTEEKINHAYAYGGPNMAVKTIEKLMNVPIDHYATIDMDGLHDMIDTLGGVDVVSNSTFTMGANHFVKGEKTHVDGDAAMDFIRSRKEDGAGGDFGRQERQQLILEAMADKLTS", "soluble on expression in E. coli": "not soluble"},
      {"sequence": "RSFAKDLEAKQKMSLTSWFLVSSGGTRHRLPREMIFVGRDDCELMLQSRSVDKQHAVINYDASTDEHLVKDLGSLNGTFVNDVRIPEQTYITLKLEDKLRFGYDTNLFTVVQGEMRVPEEALKHEKFTIQLQLSQKSSESELSKSASAKSIDSKVADAATEVQHKTTEALKSEEKAMDISAMPRGTPLYGQPSWWGDDEVDEKRAFKTNGKPEEKNHEAGTSGCSIDAKQVEEQSAAANEEVLFPFCREPSYFEIPTKEFQQPSQITESTIHEIPTKDTPSSHITGAGHASFTIEFDDSTPGKVTIRDHVTKFTSDQRHKSKKSSPGTQDLLGIQTGMMAPENKVADWLAQNNPPQMLWERTEEDSKSIKSDVPVYLKRLKGNKHDDGTQSDSENAGAHRRCSKRATLEEHLRRHHSEHKKLQKVQATEKHQDQAVVFGVDDNQDYNRPVINEKHKDLIKDWALSSAAAVMEERKPLTTSGFHHSEEGTSSSGSKRWVSQWASLAANHTRHDQEERIMEFSAPLPLENETEISESGMTVRSTGSATSLASQGERRRRTLPQLPNEEKSLESHRAKVVTQRSEIGEKQDTELQEKETPTQVYQKDKQDADRPLSKMNRAVNGETLKTGGDNKTLLHLGSSAPGKEKSETDKETSLVKQTLAKLQQQEQREEAQWTPTKLSSKNVSGQTDKCREETFKQESQPPEKNSGHSTSKGDRVAQSESKRRKAEEILKSQTPKGGDKKESSKSLVRQGSFTIEKPSPNIPIELIPHINKQTSSTPSSLALTSASRIRERSESLDPDSSMDTTLILKDTEAVMAFLEAKLREDNKTDEGPDTPSYNRDNSISPESDVDTASTISLVTGETERKSTQKRKSFTSLYKDRCSTGSPSKDVTKSSSSGAREKMEKKTKSRSTDVGSRADGRKFVQSSGRIRQPSVDLTDDDQTSSVPHSAISDIMSSDQETYSCKPHGRTPLTSADEHVHSKLEGSKVTKSKTSPVVSGSSSKSTTLPRPRPTRTSLLRRARLGEASDSELADADKASVASEVSTTSSTSKPPTGRRNISRIDLLAQPRRTRLGSLSARSDSEATISRSSASSRTAEAIIRSGARLVPSDKFSPRIRANSISRLSDSKVKSMTSAHGSASALKTTRLQSAGSAMPTSSSFKHRIKEQEDYIRDWTAHREEIARISQDLALIAREINDVAGEIDSVTSSGTAPSTTVSTAATTPGSAIDTREEVGDLHGEMHKLVDRVFDESLNFRKIPPLVHSKTPEGNNGRSGDPRPQAAEPPDHLTITRRRTWSRDEVMGDNLLLSSVFQFSKKIRQSIDKTAGKIRILFKDKDRNWDDIESKLRAESEVPIVKTSSMEISSILQELKRVEKQLQAINAMIDPDGTLEALNNMGFPSAMLPSPPKQKSSPVNNHHSPGQTPTLGQPEARALHPAAVSAAAEFENAESEADFSIHFNRFNPDGEEEDVTVQE", "soluble on expression in E. coli": "soluble"},
      {"sequence": "SAKTDKLAQFLDSGIYESDEFNWFFLDTVRITNRSYTRFKVSPSAYYSRFFNSKQLNQHSSESNPKKRKRKQKNSSFHLPSVGEQASNLRHQEARLFLSKAHESFLKEIELLSLTKGLSDDNDDDDSSLLNKCCDDEVSFIELGGVWQAPFYEITLSFNLHCDNEGESCNEQRVFQVFNNLVVNEIGEEVEAEFSNRRYIMPRNSCFYMSDLHHIRNLVPEKISHYHIGRRCNSLIDVIYAAKSEEGYNLIVIDPPWENASAHQKSKYPTLPNQYFLSLPIKQLAHAEGALVALWVTNREKLLSFVEKELFPAWGIKYVATMYWLKVKPDGTLICDLDLVHHKPYEYLLLGYHFTELAGSEKRSDFKLLDKNQIIMSIPGDFSRKPPIGDILLKHTPGSQPARCLELFAREMAAGWTSWGNEPLHFQDSRYFLKV", "soluble on expression in E. coli": "soluble"},
      {"sequence": "SASSSKALIESIGSLDKDSYVSLLSKLIGESKFVQNNPPELIPQEDLIVKHVLDSLRPYSTETGGGPLVINHVAYHSGRGNLIVEYPGSVPGKILSFVGMHMDVVTANPDDWEFDPFSLSIDGDKLRGRGTTDCLGHVALVTELMKKLGQAKPALKSTVVAVFIASEENSSIPGVGVDMLVKDKLLDKLKSGPLYWIDTADKQPCVGTGGMIPWKLQFTGKLFHSGLAHKAINAMELAMEGLKEIQARFYRDFPPHPQEEVYGFATPSTMKPTQWCYPAGGINQIPGECTVSGDVRLTPFYDVKEVITKLQEYVDDINGNIERLETRGPVSKYVLPDENLRGRLTLSFDEASAGVACNLDSPGFHVLCKATEEVVGHVKPYSITGTLPLIRDLQDEGFDVQTSGYGLMATYHAKNEYCLLTDMCQGFDVFIRIISQLEQV", "soluble on expression in E. coli": "soluble"},
      {"sequence": "SATKELDLLADTAIAETEKPLDLGLDDSKTHAFLFTATWCDWYFKDSRPTASQQCISAQNSVNNLTKKFDKFAWQGIISRLWTGPSELANYTKKYQVKHPIAIDVSNSMFHQYGIKEFPSLVVVKNGEVILKTSDFSKPESLAKQLSKL", "soluble on expression in E. coli": "not soluble"},
      {"sequence": "SAVAIPQATSLTNLVFLTKLIPRGSFTTILPKHHRKPIFVFSLQTQFSSPVTTLTSKNPKDDEQQQKLSFTLNYLIDSCGLSPDSATVASRKLLLDSPERPNTVLNLLRDHGFTTAQISSLVKKRPVLLLANAESVLLPKLSFFLSIGVSKSLLARTLASDPTILTRSLVNQLIPSYNFLKSVLDSDEKIVAALRRTTWVFLEDHTKNLVPNINYMAETGVPEKCIKLLLTHFPEAVMQKNHEFQAIAKQAQEMGFNPQKSTFVLAIHALSGKGNKSIWDKCFEVYQRWGWSEDDIMCAFKKHPHCMMLSERKINRTMEYFVNEMNMAPRSIAQCPVVLFFSLEKRIIPRCSVTKVLVSNGLVKEDWSLTSLLVPVEKVFLEKLVIKYEEELPELMNLYLGCTKL", "soluble on expression in E. coli": "soluble"},
      {"sequence": "SDIEAYFERIGYKNSVNKLDLATLTEVLQHQMRAVPFENLSMHCGEAMCLGLEATFDHIVRKKRGGWCLQVNHLLYWALTKMGFETTMLGGYVYITPVNKYSSEMVHLLVQVTISDRNYIVDSAYGSSYQMWEPLELTSGKDQPQVPAIFRLTEENGTWYLDQIRREQDVPNQEFVNSDLLEKSKYRKIYSFTLEPRTIEDFEYVNTYLQTSPASVFVSTSFCSLQTSEGVCCLIGSTLTSRRFSYKDNVDLVEFKSLTEEEIEDVLKTTFGISLEKKFVPKHGELVFTI", "soluble on expression in E. coli": "soluble"},
      {"sequence": "SEAQQKNYTFRCLQMSSFANRSWSRTDSVVWLGDLQTHRWSNDSATISFTKPWSQGKLSNQQWEKLQHMFQVYRVSFTRDIQELVKMMSPKEDYPIEIQLSAGCEMYPGNASESFLHVAFQGKYVVRFWGTSWQTVPGAPSWLDLPIKVLNADQGTSATVQMLLNDTCPLFVRGLLEAGKSDLEKQEKPVAWLSSVPSSAHGHRQLVCHVSGFYPKPVWVMWMRGDQEQQGTHRGDFLPNADETWYLQATLDVEAGEEAGLACRVKHSSLGGQDIILYWGSLHHILDAQKMVWNHRHHHHHH", "soluble on expression in E. coli": "soluble"}
    ]}
  ]
}
